Assay results taken from the Human Domainome abundance scans (Beltran et al. 2025).

B1: Zinc finger homeobox protein 3, residues 2244 to 2299; numbered along this chain, Q15911 (parent)
chain: SSRTRFTDYQLRVLQDFFDANAYPKDDEFEQLSNLLNLPTRVIVVWFQNARQKARK

Variants of: B1
Experiment: abundance fitness (aPCA) (normalised: wild type 0, dead -1); higher = more abundant; growth selection in yeast, the domain comes from the species named
Conditions: Homo sapiens

Abundance fitness of substitutions, site by site:
E28: N -0.39 | T -0.236 | V -0.142 | W -0.719 | G -0.488 | H -0.435 | M -0.347 | I -0.374 | F -0.603 | S -0.295 | K -0.422 | Y -0.785 | L -0.739 | D 0.2 | Q -0.169 | C -0.539 | R -0.481
K25: V -0.115 | W -0.512 | D -0.466 | Q -0.26 | C -0.184 | P -0.228 | I -0.226 | A -0.075 | E -0.306 | T -0.161 | H -0.267 | G -0.14 | R 0.013 | L -0.136 | S -0.133 | F -0.338
Y23: T -0.043 | Q -0.011 | G -0.332 | A -0.188 | R -0.019 | W 0.019 | M 0.041 | F 0.122 | N 0.013 | V -0.099 | K -0.13 | D -0.018 | S -0.051 | E 0.139 | I 0.092 | L -0.161 | P -0.749 | C -0.283
A22: L -0.129 | R -0.147 | W -0.054 | M 0.106 | N -0.024 | G 0.015 | K -0.17 | D 0.219 | F -0.353 | E 0.082 | V -0.14 | Q -0.127 | H -0.125 | T 0.01 | C -0.156 | I -0.07 | Y -0.196 | P 0.101
D27: A -0.117 | K -0.113 | R -0.147 | G 0.095 | N -0.063 | E -0.084 | F -0.233 | C -0.294 | V -0.215 | M -0.037 | Q -0.121 | S -0.077 | L -0.17 | P -0.388 | I -0.17 | Y -0.16 | W -0.157 | T -0.078
N21: D -0.306 | H 0.031 | S -0.157 | C -0.232 | W -0.722 | Q -0.26 | L -0.912 | G -0.378 | A -0.428 | E -0.262 | M -0.394 | R -0.237 | K 0.166 | T 0.011 | P -0.74 | V -0.422
F29: A -0.362 | D -0.955 | H -0.484 | L -0.035 | K -0.412 | I 0.071
A20: S -0.065 | W -0.36 | R 0.075 | F -0.618 | L -0.188 | Y -0.291 | N 0.24 | P -0.543 | T -0.044 | E -0.115 | G -0.13 | Q -0.111 | V -0.249 | D -0.102 | I -0.405 | M -0.268
F18: Y 0.011 | W -0.424
D26: C -0.506 | L -0.307 | F -0.332 | I 0.038 | H -0.683 | R -0.16 | P -0.163 | E -0.214 | G -0.247 | W -0.376 | T 0.021 | Y -0.105 | M 0.018 | V -0.055 | S -0.219 | Q -0.188 | K -0.1
P24: V -0.657 | A -0.555 | S -0.734 | G -1.24 | N -0.922 | T -0.856 | H -0.927 | R -0.633 | F -0.533 | W -0.381
D19: P -0.686 | A -0.024 | E 0.172 | S -0.299 | Q -0.263 | C -0.036 | M 0.169 | G -0.414 | T 0.046 | V -0.141 | K -0.164 | W -0.329 | R -0.012
